Biological target: Streptococcus pneumoniae pneumolysin, recombinant (Streptococcus pneumoniae strain R6) (UniProt Q04IN8)
Experiment: ITC; chaperone in the syringe, Ply in the sample cell; 20 mM MES, 100 mM NaCl, 1 mM beta-mercaptoethanol, 10% glycerol, pH 6.5, 25 C; independent binding model

Substance: Streptococcus pneumoniae SlrA (from UniProt Q8DQG5 19-267) (enzyme)
- dH: -149 kJ/mol
- stoichiometry N: 0.84
